US12655405B2, “Sequence specific degradation of single-stranded polynucleotides with CARD1 nuclease” (The Rockefeller University, priority 2020, dated 2026)

Key:
Tresu_2185 (CARD1) = format: biochemical, Treponema succinifaciens
Description: (§1) The reactions were done in a reaction buffer (20 mM Tris-HCl, pH 7.5, 150 mM NaCl, 1 mM DTT, and 5 mM MnCl2, unless otherwise stated, with 250 nM CARD1 and 2.5 uM of cA4, with 2 μg M13 ssDNA (NEB) (FIG. 1b), 500 ng of non-linearized and linearized ΦX174 dsDNA (NEB) (FIGS. 1d, e, respectively) and 2 μg ΦX174 ssDNA (NEB) (FIG. 1a). cA4 and cA6 was obtained from Biolog Life Science Institute GmbH & Co. KG (Bremen, Germany). The reaction products were visualized by agarose gel electrophoresis. For the RNA oligo cleavage assay, 250 nM of a Cy3-labelled RNA oligo was added to the reaction. The reaction products were run on Mini-PROTEAN TBE-Urea precast gel (Bio-Rad), and visualized on a TYPHOON IMAGE SCANNER. For degradation of ssRNA or dsRNA ladders, 1 ug of either ssRNA ladder (NEB) or dsRNA ladder (NEB) was digested. The reaction products were visualized by agarose gel electrophoresis. At the indicated timepoints, all reaction were stopped by the addition of 25 mM of EDTA.

[1] = system: circular ΦX174 and M13 ssDNA; test: In vitro DNA cleavage assay, agarose gel; format: biochemical
Description: as §1

ΦX174 ssDNA = test: Next-generation sequencing of ssDNA degradation products (ΦX174); format: biochemical
Description: (§2) To assess the ssDNA cleavage patterns of CARD1, 2 ug of ΦX174 virion DNA (New England Biolabs) or M13 ssDNA (M13mp18) (New England Biolabs) was first digested by 250 nM CARD1 with 2.5 uM of cA4 in a buffer consisting of 20 mM Tris pH 7.5, 150 mM NaCl, 1 mM DTT, and 5 mM MnCl2. At the specified time points, the reaction was quenched by adding 25 mM of EDTA. Half the reaction was visualized by agarose gel electrophoresis. The remaining digestion products from the 2 hour timepoint were purified by phenol chloroform extraction.
Without further fragmentation, the purified digested DNA was subjected to the Accel-NGS 1S Plus DNA Library Kit (Swift Biosciences), proceeding according to the manufacturer's protocol, using a 1.5× ratio of magnetic beads (AMPure XP beads by Beckman Coulter) to also include small DNA fragments. One of the library preparation steps involves the addition of on average 8 nucleotides to the 3′ end of the DNA. The 5′ end of the input DNA molecules remains unchanged. Paired-end sequencing was performed on an Illumina MiSeq. The 5′ end of each read R1 represents the start of a DNA molecule, and thus a CARD1 cut site. Using a custom python script, the location of 7,020,067 ΦX174 reads (mapping to Genbank reference NC_001422) and 7,670,616 M13 reads (mapping to Genbank reference X02513) was determined. To account for reads mapping at the circular junctions, 65 nucleotides of the first 5′ end of the maps were copied and added at the 3′ end of the maps. The DNA sequence 20 nucleotides upstream and downstream of the cut sites was extracted using a custom Python script, and the CARD1 cleavage motifs for ΦX174 and the M13 were determined separately using Weblogo3 (38), with basal nucleotide compositions determined by the compositions in each map (ΦX174 with A:24.0, C:21.4, G:23.3, T:31.3, and M13 with A:24.4, C:21.1, G:21.1, T:33.4). For the fragment size analysis, 8 nucleotides were removed from all the reads from the 3′ end pair mate by the “Trim Ends” option in the Geneious Bioinformatics Software platform (39). Using the STAR aligner (version 2.7.3) (40), 7,505,136 reads were successfully mapped to ΦX174, and 8,179,356 reads were successfully mapped to M13, using default arguments with the addition of --alignIntronMax 1 --alignMatesGapMax 6000 --peOverlapNbasesMin 5 --alignEndsProtrude 10 ConcordantPair.

M13 ssDNA = test: Next-generation sequencing of ssDNA degradation products (M13); format: biochemical
Description: as §2
Without further fragmentation, the purified digested DNA was subjected to the Accel-NGS 1S Plus DNA Library Kit (Swift Biosciences), proceeding according to the manufacturer's protocol, using a 1.5× ratio of magnetic beads (AMPure XP beads by Beckman Coulter) to also include small DNA fragments. One of the library preparation steps involves the addition of on average 8 nucleotides to the 3′ end of the DNA. […] The 5′ end of each read R1 represents the start of a DNA molecule, and thus a CARD1 cut site. Using a custom python script, the location of 7,020,067 ΦX174 reads (mapping to Genbank reference NC_001422) and 7,670,616 M13 reads (mapping to Genbank reference X02513) was determined. To account for reads mapping at the circular junctions, 65 nucleotides of the first 5′ end of the maps were copied and added at the 3′ end of the maps. […]

[2] = system: ssRNA ladder, dsRNA ladder; test: Degradation of ssRNA or dsRNA ladders; format: biochemical; conditions: 15 minutes
Description: as §1

[3] = system: RNA oligos with either 15 adenines, uracils, or cytosines; conditions: 5′ fluorophore and 3′ quencher; 15 A, U or C
Description: For determining the nucleotide cleavage preference of CARD1, the reaction was performed as above, with 1 uM of each RNA oligo (IDT). […] Fluorescent measurements were taken in a TECAN plate reader, using values from when the reaction was complete. 0.5 ul of RNaseI (Thermo Fisher Scientific), which cuts next to all RNA nucleotides, was used as a positive control.

[4] = system: recA, lexA, uvrA and umuC transcripts; test: RT-qPCR of SOS-induced genes; format: cell-based, Staphylococcus aureus RN4220; conditions: after aTc induction; compared to d-CARD1; cells expressing Cas10HD
Description: Cells carrying pTarget and a pCRISPR containing either CARD1 or dCARD1 were grown overnight in triplicate, diluted 1/100 into fresh BHI with 10 ug/ml of chloramphenicol and outgrown for an hour. The cells were then diluted to an OD of 0.1. To induce targeting, aTc was added to a final concentration of 250 ng/ml. The cells were incubated with shaking for 20 minutes before being spun down at 6000×g for 5 minutes, and then lysed in PBS with 1 mg/ml of lysostaphin and 2 mg/ml of lysozyme for 10 minutes at 37° C. RNA was purified using Direct-zol RNA miniprep kit (Zymo Research) according to the manufacturer's protocol, followed by DNA depletion using TURBO DNA-free kit (Invitrogen) according to the manufacturer's protocol. To produce cDNA, approximately 2 ug of DNA-depleted RNA was treated using the SuperScript IV Reverse Transcriptase kit (Invitrogen) according to the manufacturer's protocol and random hexamer primers. The RT-qPCR reaction was performed using Fast SYBR Green Master Mix (Life Technologies) with an input of about 100 ng cDNA, in biological triplicate, using […] of each primer, on a QuantStudio 3 qPCR machine (Thermo Fisher). The housekeeping gene rho was used as an internal normalization control (37).

[5] = system: Staphylococcus aureus RN4220; test: Growth curves, in vivo CARD1 toxicity induction; format: cell-based; conditions: pTarget + pCRISPR variant, no antibiotic selection of pTarget
Description: For in vivo CARD1 toxicity induction, triplicate RN4220 overnight cultures harbouring pTarget and a pCRISPR are diluted 1:100, outgrown for about an hour, and normalized for OD. Cells are then seeded in a 96 well plate. To induce targeting, 6.25-12.5 ng/ml of anhydrotetracycline (aTc) is added to the appropriate wells. Absorbance at 600 nm is then measured every 10 minutes by a microplate reader (TECAN Infinite 200 PRO). To analyze targeting escapers, cells from the end of the experiment (either cells from wells without aTc, i.e. naïve cells, or cells from wells that recovered later in the time course due to CARD1 toxicity) are re-streaked on BHI agar plates, and individual colonies were launched in liquid culture, diluted the next day, and used for a new time course experiment. From these overnight cultures, plasmid DNA was isolated (QIAgen Spin Miniprep Kit), digested by BamHI-HF (single-cutter for both pTarget and pCRISPR) (New England Biolabs), and visualized by gel electrophoresis. The deletion of important features in pTarget (making it unable to be targeted by pCRISPR) or pCRISPR was confirmed by Sanger sequencing.

S. aureus viability = test: CARD1 toxicity assay (cfu enumeration); format: cell-based, Staphylococcus aureus
Description: To measure the effect of CARD1 activity on S. aureus viability over time, colonies of S. aureus harbouring pTarget and the specified pCRISPR were launched in liquid culture overnight in triplicate. The next day, cells were diluted 1:100 and grown out for about an hour, and normalized for OD. One aliquot was taken from each culture, and then aTc was added to induce CRISPR targeting and CARD1 activity (to a concentration of 3 ng/ml in FIG. 4c or 125 ng/ml in FIG. 5c). At each timepoint, cell aliquots were removed, centrifuged, resuspended in media lacking aTc, and serial dilutions were plated on solid BHI agar plates with or without aTc. All viable cells should grow on the solid agar plates, but only targeting escapers (cells that recover due to mutations in pTarget or pCRISPR) should form CFUs on plates with aTc.

pTarget = test: Plasmid curing assay; format: cell-based, Staphylococcus aureus; conditions: but not pCRISPR
Description: To assess CARD1's ability to promote plasmid curing under low transcription conditions, a plasmid curing assay was performed, by adapting a known approach. Briefly, overnight cultures of S. aureus cells harbouring pTarget and a pCRISPR containing either Csm6, dCsm6, or CARD1 were diluted to exactly OD 0.15 in tryptic soy broth with 10 ug/ml chloramphenicol. After removing a cell aliquot for the 0 timepoint, aTc was added to a concentration of 9.3 ng/ml (FIG. 4e) or 125 ng/ml (FIG. 4f) and the cells were incubated at 37° C., with further aliquots taken at the indicated times. The cells were then lysed, and the plasmid DNA isolated using a QIAprep Miniprep kit (Qiagen) according to the manufacturer's protocol (Qiagen). 400 ng of plasmid was then linearized using BamHI-HF (New England Biolabs), which cuts both pTarget and pCRISPR once, followed by visualization by gel electrophoresis.

phage Φ12γ3 [6] = test: In vivo anti-phage immunity growth curves (Φ12γ3); format: cell-based, Staphylococcus aureus RN4220
Description: For in vivo anti-phage immunity, cells harbouring various pCRISPRs were launched in triplicate overnight, diluted 1:100, outgrown for about an hour, and normalized for OD. Cells were seeded into a 96 well plate. Phage Φ12γ3 (25) […] was added at the appropriate multiplicity of infection, and OD measurements were taken every 10 minutes.

phage Φ12γ3 [7] = test: Liquid anti-phage infection, PFU counts over time; format: cell-based, Staphylococcus aureus RN4220
Description: To obtain CFU and PFU counts over time from cultures infected with phage, RN4220 cultures harbouring various pCRISPRs were launched overnight, diluted 1:100, and outgrown for about one hour. Cells were then infected with phage Φ12γ3 at an MOI of 10, and an aliquot was taken shortly after to obtain PFUs at time 0. The cultures were then incubated further, with aliquots taken at 1 and 4 hours.

[8] = ORF9 and ORF27 transcripts targeted

Cyclic Tetra-Adenylate [cA4]
degradation of RNA oligo by CARD1 in the presence of the cyclic oligoadenylate (Tresu_2185 (CARD1); 60 nucleotide RNA oligo): degraded in the presence of cA4 | degradation of ssDNA by Tresu_2185 on addition of the cyclic oligoadenylate (Tresu_2185 (CARD1); circular ΦX174 and M13 ssDNA, 250 nM CARD1, 2.5 uM cA, 5 mM MnCl2, agarose gel): resulted in the degradation of circular ΦX174 and M13 ssDNA | cleavage of dsDNA by Tresu_2185 on addition of the cyclic oligoadenylate (Tresu_2185 (CARD1); supercoiled or linearized ΦX174 dsDNA): did not promote cleavage

B1: CARD1: cA4-activated ssDNA and ssRNA nuclease of Treponema succinifaciens, SEQ ID NO:1; N-terminal CARF domain, C-terminal REase domain (protein, listed as Treponema succinifaciens)
chain: MKETILVNLVSEQTIPNVQFIKWYFNKKQTPMKILLVSTKEMEQKEKSLFIKNALHFSDSFVEWETIHTDGNDISKTENILTDYFRDNEYKNIIVNITGGTKIMSLAAFDFFNNKPNTEIFYQPIGKELQELYPNKQKYDMFEVLSLKEYLDAHGISYKYDNECVKDWNYNKTVYDLCVADNRELIKGMIALQNNSYFNNVYKRKDFLDFTQIEEEKFIAINHPAATKENMIKILQIFGFDVSRIEHKHIRYITGGWFEEYVYQKICNEYHNVDEKNVALNVTIQKGNDKNELDVIYLDKDNKLHVIECKSFVDGNEGNRVLNDALYKLQAIIKSKFGLYVKQHLYTKSIIEKETPLNRAKEFGIDIKDGTQL
nuclease activity on ssDNA ([1]; ΦX174 and M13 ssDNA, smear of products): cA4-activated, non-specific ssDNA nuclease | cation requirement of ssDNA degradation ([1]; ΦX174 ssDNA, with or without MnCl2): required the addition of Mn cation | average product size (ΦX174 ssDNA; stated for both ΦX174 and M13 ssDNA degradation products): ~150 nucleotides | cleavage site preference (ΦX174 ssDNA; stated for both ΦX174 and M13 ssDNA degradation products, WebLogo): preferentially upstream of T(A/G) sites | cuts that occur at the 25 most frequent positions (ΦX174 ssDNA; ΦX174, 5′ end mapping, 2 hours timepoint): 26.7% | average fragment length of degradation products (ΦX174 ssDNA; ΦX174, 2 hours timepoint): 163.6 nucleotides | cuts that occur at the 25 most frequent positions (M13 ssDNA; M13, 5′ end mapping): 31.1% | average fragment length of degradation products (M13 ssDNA; M13, 2 hours timepoint): 150.1 nucleotides | degradation of single-stranded versus double-stranded RNA [2]: Single-stranded RNA, but not double-stranded RNA, was degraded | degradation of homopolymer RNA oligos (sequence preference) [3]: able to efficiently degrade RNAs consisting of all three bases | expression of recA, lexA, uvrA and umuC (SOS response), normalized against rho [4]: significant increase | growth of cultures (OD600) after addition of aTc [5]: severe growth defect | fraction of colonies formed in the absence of aTc that come from bona fide dormant cells (S. aureus viability; compared with colonies resistant to aTc (escapers)): approximately half | colony counts (viable cells) after CARD1 induction (S. aureus viability; three hours of target transcription, plated on media lacking aTc): initial decrease in colony counts of an order of magnitude | time after addition of the inducer at which pTarget was cleared (pTarget): 20 minutes | immunity in cells that express Cas10^HD (phage Φ12γ3 [6]; [8]): able to provide immunity | need of CARD1 nuclease activity for immunity, early target (phage Φ12γ3 [6]; early ORF9 transcript of Φ12γ3 targeted): not required for immunity | survival of cultures after infection, late target (phage Φ12γ3 [6]; late ORF27 transcript of Φ12γ3 targeted): able to survive infection | phage titer in cultures of cells that express Cas10^HD (phage Φ12γ3 [7]; [8]): reduce the phage titer | phage propagation (pfu) at different times after infection (phage Φ12γ3 [7]; ORF27 transcript of Φ12γ3 targeted): effectively eliminated Φ12γ3 from the culture
